Measurements as given in FireProtDB (doi:10.1006/jmbi.1997.1365).
“And” between values parts separate entries of the source, which are not always exact repeats. Equal values may be shown once.

B1: Lysozyme C, P61626 (parent)
chain: MKALIVLGLVLLSVTVQGKVFERCELARTLKRLGMDGYRGISLANWMCLAKWESGYNTRATNYNAGDRSTDYGIFQINSRYWCNDGKTPGAVNACHLSCSALLQDNIADAVACAKRVVRDPQGIRAWVAWRNRCQNRDVRQYVQGCGV

Variants of: B1
Conditions: Homo sapiens; pH 2.49; Thermal; DSC; glycine 0.05 M; reversible: yes; structure 1LZ1; whole UniProt chain shown

Row | Variant | Tm | heat capacity change of unfolding | unfolding enthalpy (calorimetric) | unfolding enthalpy (van 't Hoff)
1 | MKALIVLGLVLLSVTVQGKVFERCELARTLKRLGMDGYRGISLANWMCLAKWESGYNTRATNYNAGDRSTDYGIFQANSRYWCNDGKTPGAVNACHLSCSALLQDNIADAVACAKRVVRDPQGIRAWVAWRNRCQNRDVRQYVQGCGV [I77A] | 55.9 °C | 0.84 kcal/mol/K | 101 kcal/mol | 108 kcal/mol
2 | MKALIVLGLVLLSVTVQGKVFERCELARTLKRLGMDGYRGISLANWMCLAKWESGYNTRATNYNAGDRSTDYGIFQGNSRYWCNDGKTPGAVNACHLSCSALLQDNIADAVACAKRVVRDPQGIRAWVAWRNRCQNRDVRQYVQGCGV [I77G] | 48.1 °C | 0.79 kcal/mol/K | 84.4 kcal/mol | 89.7 kcal/mol

Same assay, conditions: Homo sapiens; pH 2.66; Thermal; DSC; glycine 0.05 M; reversible: yes; structure 1LZ1; whole UniProt chain shown

Row | Variant | Tm | heat capacity change of unfolding | unfolding enthalpy (calorimetric) | unfolding enthalpy (van 't Hoff)
3 | MKALIVLGLVLLSVTVQGKVFERCELARTLKRLGMDGYRGISLANWMCLAKWESGYNTRATNYNAGDRSTDYGIFQANSRYWCNDGKTPGAVNACHLSCSALLQDNIADAVACAKRVVRDPQGIRAWVAWRNRCQNRDVRQYVQGCGV [I77A] | 59.1 °C | 1.2 kcal/mol/K | 106 kcal/mol | 114 kcal/mol
4 | MKALIVLGLVLLSVTVQGKVFERCELARTLKRLGMDGYRGISLANWMCLAKWESGYNTRATNYNAGDRSTDYGIFQINSRYWCNDGKTPGAVNACHLSCSALLQDNAADAVACAKRVVRDPQGIRAWVAWRNRCQNRDVRQYVQGCGV [I107A] | 55.4 °C | 1.39 kcal/mol/K | 93.1 kcal/mol | 98.1 kcal/mol

Same assay, conditions: Homo sapiens; pH 2.7; 64.9 °C; Thermal; DSC; glycine 0.05 M; reversible: yes; structure 1LZ1; whole UniProt chain shown

Row | Variant | ddG of mutation (higher = less stable) | heat capacity change of unfolding | unfolding enthalpy (calorimetric) | unfolding enthalpy (van 't Hoff)
5 | MKALIVLGLVLLSVTVQGKVFERCELARTLKRLGMDGYRGISLANWMCLAKWESGYNTRATNYNAGDRSTDYGIFQANSRYWCNDGKTPGAVNACHLSCSALLQDNIADAVACAKRVVRDPQGIRAWVAWRNRCQNRDVRQYVQGCGV [I77A] | 1.72 kcal/mol | 1.46 kcal/mol/K | 115 kcal/mol | 121 kcal/mol
6 | MKALIVLGLVLLSVTVQGKVFERCELARTLKRLGMDGYRGISLANWMCLAKWESGYNTRATNYNAGDRSTDYGIFQGNSRYWCNDGKTPGAVNACHLSCSALLQDNIADAVACAKRVVRDPQGIRAWVAWRNRCQNRDVRQYVQGCGV [I77G] | 3.83 kcal/mol | 1.24 kcal/mol/K | 106 kcal/mol | 110 kcal/mol
7 | MKALIVLGLVLLSVTVQGKVFERCELARTLKRLGMDGYRGISLANWMCLAKWESGYNTRATNYNAGDRSTDYGIFQINSRYWCNDGKTPGAVNACHLSCSALLQDNAADAVACAKRVVRDPQGIRAWVAWRNRCQNRDVRQYVQGCGV [I107A] | 2.7 kcal/mol | 1.65 kcal/mol/K | 110 kcal/mol | 113 kcal/mol

Same assay, conditions: Homo sapiens; pH 2.7; Thermal; DSC; glycine 0.05 M; reversible: yes; structure 1LZ1; whole UniProt chain shown

Row | Variant | Tm | change of melting temperature, mutant - wild type (higher = more stable) | heat capacity change of unfolding | unfolding enthalpy (calorimetric) | unfolding enthalpy (van 't Hoff)
8 | MKALIVLGLVLLSVTVQGKVFERCELARTLKRLGMDGYRGISLANWMCLAKWESGYNTRATNYNAGDRSTDYGIFQANSRYWCNDGKTPGAVNACHLSCSALLQDNIADAVACAKRVVRDPQGIRAWVAWRNRCQNRDVRQYVQGCGV [I77A] | 59.7 °C | -5.2 °C | 1.46 kcal/mol/K | – | –
9 | MKALIVLGLVLLSVTVQGKVFERCELARTLKRLGMDGYRGISLANWMCLAKWESGYNTRATNYNAGDRSTDYGIFQGNSRYWCNDGKTPGAVNACHLSCSALLQDNIADAVACAKRVVRDPQGIRAWVAWRNRCQNRDVRQYVQGCGV [I77G] | 52 °C and 52.2 °C | -12.7 °C | 0.62 kcal/mol/K and 1.24 kcal/mol/K | 90.9 kcal/mol | 92.8 kcal/mol
10 | MKALIVLGLVLLSVTVQGKVFERCELARTLKRLGMDGYRGISLANWMCLAKWESGYNTRATNYNAGDRSTDYGIFQINSRYWCNDGKTPGAVNACHLSCSALLQDNAADAVACAKRVVRDPQGIRAWVAWRNRCQNRDVRQYVQGCGV [I107A] | 56.2 °C | -8.7 °C | 1.65 kcal/mol/K | – | –

Same assay, conditions: Homo sapiens; pH 2.8; Thermal; DSC; glycine 0.05 M; reversible: yes; structure 1LZ1; whole UniProt chain shown

Row | Variant | Tm | heat capacity change of unfolding | unfolding enthalpy (calorimetric) | unfolding enthalpy (van 't Hoff)
11 | MKALIVLGLVLLSVTVQGKVFERCELARTLKRLGMDGYRGISLANWMCLAKWESGYNTRATNYNAGDRSTDYGIFQANSRYWCNDGKTPGAVNACHLSCSALLQDNIADAVACAKRVVRDPQGIRAWVAWRNRCQNRDVRQYVQGCGV [I77A] | 61.5 °C | 1.2 kcal/mol/K | 110 kcal/mol | 115 kcal/mol
12 | MKALIVLGLVLLSVTVQGKVFERCELARTLKRLGMDGYRGISLANWMCLAKWESGYNTRATNYNAGDRSTDYGIFQINSRYWCNDGKTPGAVNACHLSCSALLQDNAADAVACAKRVVRDPQGIRAWVAWRNRCQNRDVRQYVQGCGV [I107A] | 57.7 °C | 1.08 kcal/mol/K | 97.8 kcal/mol | 103 kcal/mol

Same assay, conditions: Homo sapiens; pH 2.98; Thermal; DSC; glycine 0.05 M; reversible: yes; structure 1LZ1; whole UniProt chain shown

Row | Variant | Tm | heat capacity change of unfolding | unfolding enthalpy (calorimetric) | unfolding enthalpy (van 't Hoff)
13 | MKALIVLGLVLLSVTVQGKVFERCELARTLKRLGMDGYRGISLANWMCLAKWESGYNTRATNYNAGDRSTDYGIFQANSRYWCNDGKTPGAVNACHLSCSALLQDNIADAVACAKRVVRDPQGIRAWVAWRNRCQNRDVRQYVQGCGV [I77A] | 64.5 °C | 1.63 kcal/mol/K | 115 kcal/mol | 120 kcal/mol

Same assay, conditions: Homo sapiens; pH 2.82; Thermal; DSC; glycine 0.05 M; reversible: yes; structure 1LZ1; whole UniProt chain shown

Row | Variant | Tm | heat capacity change of unfolding | unfolding enthalpy (calorimetric) | unfolding enthalpy (van 't Hoff)
14 | MKALIVLGLVLLSVTVQGKVFERCELARTLKRLGMDGYRGISLANWMCLAKWESGYNTRATNYNAGDRSTDYGIFQGNSRYWCNDGKTPGAVNACHLSCSALLQDNIADAVACAKRVVRDPQGIRAWVAWRNRCQNRDVRQYVQGCGV [I77G] | 54.6 °C | 0.65 kcal/mol/K | 94.7 kcal/mol | 97.6 kcal/mol

Same assay, conditions: Homo sapiens; pH 3.02; Thermal; DSC; glycine 0.05 M; reversible: yes; structure 1LZ1; whole UniProt chain shown

Row | Variant | Tm | heat capacity change of unfolding | unfolding enthalpy (calorimetric) | unfolding enthalpy (van 't Hoff)
15 | MKALIVLGLVLLSVTVQGKVFERCELARTLKRLGMDGYRGISLANWMCLAKWESGYNTRATNYNAGDRSTDYGIFQGNSRYWCNDGKTPGAVNACHLSCSALLQDNIADAVACAKRVVRDPQGIRAWVAWRNRCQNRDVRQYVQGCGV [I77G] | 59.2 °C | 0.86 kcal/mol/K | 98.6 kcal/mol | 100 kcal/mol

Same assay, conditions: Homo sapiens; pH 3.16; Thermal; DSC; glycine 0.05 M; reversible: yes; structure 1LZ1; whole UniProt chain shown

Row | Variant | Tm | heat capacity change of unfolding | unfolding enthalpy (calorimetric) | unfolding enthalpy (van 't Hoff)
16 | MKALIVLGLVLLSVTVQGKVFERCELARTLKRLGMDGYRGISLANWMCLAKWESGYNTRATNYNAGDRSTDYGIFQGNSRYWCNDGKTPGAVNACHLSCSALLQDNIADAVACAKRVVRDPQGIRAWVAWRNRCQNRDVRQYVQGCGV [I77G] | 60.4 °C | 0.81 kcal/mol/K | 100 kcal/mol | 102 kcal/mol

Same assay, conditions: Homo sapiens; pH 2.5; Thermal; DSC; glycine 0.05 M; reversible: yes; structure 1LZ1; whole UniProt chain shown

Row | Variant | Tm | heat capacity change of unfolding | unfolding enthalpy (calorimetric) | unfolding enthalpy (van 't Hoff)
17 | MKALIVLGLVLLSVTVQGKVFERCELARTLKRLGMDGYRGISLANWMCLAKWESGYNTRATNYNAGDRSTDYGIFQINSRYWCNDGKTPGAVNACHLSCSALLQDNAADAVACAKRVVRDPQGIRAWVAWRNRCQNRDVRQYVQGCGV [I107A] | 52.6 °C | 1.72 kcal/mol/K | 89.5 kcal/mol | 95.5 kcal/mol

Same assay, conditions: Homo sapiens; pH 2.95; Thermal; DSC; glycine 0.05 M; reversible: yes; structure 1LZ1; whole UniProt chain shown

Row | Variant | Tm | heat capacity change of unfolding | unfolding enthalpy (calorimetric) | unfolding enthalpy (van 't Hoff)
18 | MKALIVLGLVLLSVTVQGKVFERCELARTLKRLGMDGYRGISLANWMCLAKWESGYNTRATNYNAGDRSTDYGIFQINSRYWCNDGKTPGAVNACHLSCSALLQDNAADAVACAKRVVRDPQGIRAWVAWRNRCQNRDVRQYVQGCGV [I107A] | 61.1 °C | 1.67 kcal/mol/K | 103 kcal/mol | 108 kcal/mol

Same assay, conditions: Homo sapiens; pH 3.09; Thermal; DSC; glycine 0.05 M; reversible: yes; structure 1LZ1; whole UniProt chain shown

Row | Variant | Tm | heat capacity change of unfolding | unfolding enthalpy (calorimetric) | unfolding enthalpy (van 't Hoff)
19 | MKALIVLGLVLLSVTVQGKVFERCELARTLKRLGMDGYRGISLANWMCLAKWESGYNTRATNYNAGDRSTDYGIFQINSRYWCNDGKTPGAVNACHLSCSALLQDNAADAVACAKRVVRDPQGIRAWVAWRNRCQNRDVRQYVQGCGV [I107A] | 62.9 °C | 1.51 kcal/mol/K | 106 kcal/mol | 110 kcal/mol
